Assay: soluble on expression in E. coli; label from the status in PepcDB or PDB records

Soluble on expression in E. coli, soluble:
GSRPGPASQLPRFVRVNTLKTCSDDVVDYFKRQGFSYQGRASSLDDLRALKGKHFLLDPLMPELLVFPAQTDLHEHPLYRAGHLILQDRASCLPAMLLDPPPGSHVIDACAAPGNKTSHLAALLKNQGKIFAFDLDAKRLASMATLLARAGVSCCELAEEDFLAVSPSDPRYHEVHYILLDPSCSGSGMPSRQLEEPGAGTPSPVRLHALAGFQQRALCHALTFPSLQRLVYSTCSLCQEENEDVVRDALQQNPGAFRLAPALPAWPHRGLSTFPGAEHCLRASPETTLSSGFFVAVIERVEVPRRARG, MRPPISSGRIGDGGLDSCPEKKEEEKDSTSRLCSDLSDLRIERIGSTPAFQWISVYTKRPPMKQRFHHNIANSRLSHHAEKGKRDGLFISCVASEANLWALVMDAGTGFTSQVYKFSSTFLPKDWIMKQWEKNYYISSIAGANNGSSLVVMSKGTRYIQQSYKTGDSIPLKWMDKKWKEGFHVTSMTTGGSRWGVVMSRNSGFSEQVMEVDFLNPSEDINRRLESGYMITSMAATADQAALILSIPRRKITDEIQETLRTSSFPSSYVKDKWGKNMFITSICYGRTV, TVGCVAVDSHGNLASATSTGGLVNKMVGRIGDTPLIGAGTYANELCAVSATGKGEEIIRATVARDVAALMEFKGLSLKEAADFVIHERTPKGTVGLIAVSAAGEIAMPFNTTGMFRACATEDGYSEIAIWPTT, EPLRVLELYSGVGGMHHALRESCIPAQVVAAIDVNTVANEVYKYNFPHTQLLAKTIEGITLEEFDRLSFDMILMSPPCQPFTRIGRQGDMTDSRTNSFLHILDILPRLQKLPKYILLENVKGFEVSSTRDLLIQTIENCGFQYQEFLLSPTSLGIPNSRLRYFLIAKLQSEPLPFQAPGQVLMEFPKIEIHRKNQQDSDLSVKMLKDFLEDDTDVNQYLLPPKSLLRYALLLDIVQPTCRRSVCFTKGYGSYIEGTGSVLQTAEDVQVENIYKSLTNLSQEEQITKLLILKLRYFTPKEIANLLGFPPEFGFPEKITVKQRYRLLGNSLNVHVVAKLIKILYE, SGILFMSKVGLRGDRRSEGDEVLDPLRQALDSSMQSHNLYQHPQHLAFHVSAPVASTVQQASGLLGPLPHLSSFALQPAHSLLPPLGSHGAGFQENGAKAES, MSSGKDFFVHSHALCESENIGKDSRVWAFAHILPGARLGSECNVCDNVFIENDVIIGDRVTLKCGVQVWDGITIEDDVFIGPNATFTNDLFPRSKVYPQTFARTIIRKGASLGANCTILPGITIGINAMVGAGAVVTRSVPPNAIVVGNPAKIIGYVDAKPVNANSETRAEQKAPGVTATSVKNVTLHTMNEVADIRGSLSAGEFERSVPFKTERYFLVYDVPTAETRGEHAHRICHQFLVAVKGSVHVVADDGVNREEFILDKPNQGIHLPPMTWGIQYRYSQDAVLLVFASHYYDAGDYIRNYEEFKSLIANAELEHHHHHH, MPEQLKQRVETCYQQAEAFFKRRFPRPEVSFKLRGQKAGVAHLHENLLRFNLQLYRENQEDFLRQTVAHEVAHLVAHQLFGDRIQAHGEEWQLIMRGVYELPPNRCHNYDVQRRAVTRYIYRCPCPQSDFPFTAQRHKLVHQGRRYLCKRCREVLVYSGETRVE

Soluble on expression in E. coli, not soluble:
NTQLNIKMQPDTQTLDEVVVIGYGTVKKRDLTGAVASVKSEDIVRMPTSNVLEAIQGQVAGLDITRSSGEAGSGVNMTLRGTRSINGDNSPLFIIDGMEGSYDELNPNDIASIEVLKDASSTAVYGAAGANGVIIITTKTPKKDK, MWLGYMNKSIPTTRKTRTFKAMSIEFSAPAKMKIEVWSDIMCPFCYIGKKRLDDALSTFDQAGRIEVEYKSFELMPGLETHPLRSDVEYLADAKGMSLEQARQMNGQVQAMAQATGLEMNPDETIAANTINAHRLTHFAKAHGKQQEVAQELFKAHFVDGKNVDDLDVLVSIAAEVGLDASAAREALESDVYTNEVQQDVHEARQLGVQGVPFFVFDRKYAINGAQQEEVFTGTVEKAFEEWAAENPVSPFEVIDGQSCSVDGTCN, GPGSMLASSSLVSVKRTLRIKVGTSTSERLRAAELDEPTTSSARPPPSAMDLSYITGKMPDTLPAYQTERAVWSATTFRSAWNKLHKAYASFLETDPERAAELRAKDWQGLALYNSYAETLHLMSLLPATLRTAITQHSSFDYTEVEELFVHLGQDVEVRGSGGWVIQLPPPTTADLQYLVKHIGRFGADGRGCVANTAHRASVWRGRHGEALGVTLRVGRYVPGAARALLPLAQRGSLLILSKAGMGKTTLLRDLAAALAQEPGTPRVTVVDTSNEIGGDGPIPLPYLGRCRRIQVAQRQDQGRVMMEVIQNHTPEYLIVDEIATEEEAEAAWSISQRGVHLIGTCHGEHLEGLLQNRALNLLVGGAAQAFLSNEERRLRNKMKKTVLERPYSSPFSFVVELHARNLGHLYVDVNKAVDLVLDEQPAQLNGAVGAAVELSALLPSRVEKLLRLHDERKRKLKYVAGTGTNDAEVGEEDDETATFSSAARGTVDEDGYTLLADDGGDPESKRSIAPSTYAAPNHASGRRPHWQAEKQRRHRKTDDELYGELKGSF, MGSDKIHHHHHHMPFAKEKGQPAIYYETIGKGTPIIFIPPPGVGHLTFRYQVPLMNQCKLITFDVRGDCQSERSTEPMTMTQLAYDVKRVLDANCVRKAIVCGYSNGAAIAQEFALTYPERTAGVILIGGYFAVKNFLLEKEYKLGIWAARNELMPLLASGLAKNHFTDKQAANELYAEIMKTDPQMLADQYTTGLHYSSEDRLHQLRVPLLLIYGANDHYLQPYQTRFRELVHDVEIVYIQGVKHQVPSKAPHECNAVLREWMRRKQFIPS, MKIKEVIVVEGKDDTAAIRRAVDADTIETNGAAVGADVIERIKLAKERRGVIIFTDPDFPGEKIRRTIAEQVPGCKHAFLPREAAKAKNGKGIGVEHASPDEIRRALANVYEEASDWKEEITFAELIEAGLIGGAMARRRRQRLGEELKIGYANGRQFHKRLQVFRISRDAFYAALAHVMQEEADDV, MGSDKIHHHHHHMIATTIAMDFCQTVTPSEIATVIDSYARGWFLMADEDSSDLGWYRSRDRCLIPLDNRFRYPRSLRRVLNQQRFEFAISRDFLGTIAGCADRPSTWISDELAEIYQQLQRYGWALSWEAWQGDRLVGGILGVAIGSLFIGESMFYHEPEASKAALVTLVQALQQGGWQVFDVQLTNPHLERFGSFCVSDRQYSAQIQTAIARPAKLVTPTGDRFASQPHSSAASDHG, MGSDKIHHHHHHMSPDVYLQIFETRRPQLLRLAYRMLGSHAEAEDVVQEAWIRWQAADQAQIAIPAAWLNRVVSRLCLDLMRSARHRRESYIGPWLPEPLIEEEDADHRPDNLTLSLMMALERLSPLERAAFLLHDVFGQSFDEVALALDRSPSAARQLAVRARAHVHIDRPRYKVEREAAEGLTRAFFEACKTGDAAVLSGLLAEDAVLHSDGGGKVYNLLNVIVGAQKLLRMFTSLSRKRGDEMEFVQFTLIDALPGYVWRMGDQIQTTALEVEDGRITRVYTTRNPDKLTRIRLN, MGSDKIHHHHHHMNYKPEIAIIESNTLTCLGLKSILEEIIPMATIRTFHSFSELMDDTPDMYAHYFISAQIYVEHNAFFLPRKRKTIVLASDSPQFQLSGVPVLNIYEPEEKLVKSLLKLHQHAHHNGYPVKDMPPIAMPEVHQEILSAREIEVLVLITKGLINKEIADKLNISLTTVITHRKNITEKLGIKSVSGLTIYAVMNGYIEADRI, MILETISKQLQEQQESLNKDYRKKLESIKERSDRLESDLKTQFDAQLEKWEQNFKGYEQQLTDILNEREQLDLDQQRLNAQKQALENHMKQREE, MKRSSTVLAALLALLLVATNDAARHRKYRQTYQDIDSDDDDTSDVQITVFPSEKEVRDGRDVSFECRARTSDNSVYPTVRWARVGGPLPSSAHDSGGRLTINPVQLSDAGTYICVSDYNGNTVEARATLSVVSYGPQEVSNGLRQAGQCMADEKACGNNECVKNDYVCDGEPDCRDRSDEANCPAISRTCEPNEFKCNNNKCVQKMWLCDGDDDCGDNSDELNCNAKPSSSDCKPTEFQCHDRRQCVPSSFHCDGTNDCHDGSDEVGCVQPTVVDPPQTNLQVPRGTTFSLTCKAVAVPEPYINWRLNWGPVCEPPRCLQTSEGGYGTLTIHDAQPVDQGAYTCEAINVKGRVLATPDCIVRVVDDPRPQPPQPPTAPPQRASCDTRGAVTPYPNNYGTCECKSQVTGPNCDQCKPGAFHLSEKSPEGCLKCFCFGVSNDCRSSGHYRTKDRLMFAGDAEGVTISDIEERTIDRNTPFSFFKTGYLTFDGTTDGVAKYWRLPQRFLGDKVTAYGGKMEFEIEFSGSGHHSSEPMVVLKGNQNILVHRVRNQEHVLRSDSPVRITVETYETNYEQLNGAAATREDLLMVLADLDAFLIRATHVAHQTSTSLGDVSWEIAVDRYTPDGLALEVEQCVCPPGYLGTSCEDCAPGYERSGYGPYLGTCVPIQPRHQQCGPGAVAPTAPAQGQCQCKASVIGPNCDRCAPNSFGLAPTNPQGCIPCFCSGVTQQCSASSYRRTSVSIDYARGDRDQLELTTSDSRQPYSPQTRAELSGQAIEFRSFEEARGQTLYWKLPEKFLGDKVTSYGGTLEYTFKFSGNGNSDQSADVILRGNDIALQYKHREPFYADRENKVQIKIIETSWQRVDGQQATREHLLMTLADLDTLLIKSTYNDDCTDSQLLSANLEFAEPYGQGLTAAEVEQCICPPGYVGTSCEDCAPGYSRTGGGLYLGLCEKCECNGHASQCDKEYGYCLDCQHNTEGDQCERCKPGFVGDARRGTPNDCQPEATRAPCHCNNHSPRGCDSFGRCLLCEHNTEGTHCERCKKGYYGDATKGSPYDCTPCPCPGASDCYLDNEGQVACRICPAGLQGRLCNECAPGYTRSNKPAGRVCEPIGQVTNEDITFVQKPHEGDFARNSPSQNSSGQRRHRRRRIRVRSRFYHH, MAHHHHHHMAATKSAVSAAKRKAAKKVSRKSPEYTTLRKSCAPGAIAIILAGRFRGRRAVILKQLPHNGPLVVSGPMKYNGVPIRRIDSRYVIATSTTVDISSVDTAPITAEVFQRPKAEKPTKSEGDFMGDKQKAKAEKAAKKTSKAGKKTLVSDARAQLQKKIDAALIAAIKKDAQGKEKAGYLRSVFTVKPGDAPHRWNW, MAHHHHHHMFGTTRVWRNTFLTKSVATPPISVIRTGPRWWADPERMVRQKLMYFTLGVDQLPLRRTAVIQKDLHRFHMCKPPPRIGDTTGYKRSRAAQLTTWYRRIQYQEYHLQHLFTRHVWGLVRAYPGNTTKIQGKADDGYVGYDSVPYHRYNRTPLPFPAREIYGRRE, KYQLMANDPVQYKALGKMLGSMGRSDPNEIAPLYFSELMAALKKCATRRTHTNVLQHLCGYLKQTISAEDKQEIQEVIGQYHQGIVPLIVPLTLLKHHFRQHPDPYVALQVYMQPHP, MKAREILEILNAELLTGEENLDMEFNAACGSDLMSDVMAYVKENVVLLTGLVNPQVIRTAEMMDIKLVVFIRGKRPEEKIIQMAKEKGIAIMTTNDPMFIACGKLYSAGITERGVWD
